B1: activin B (ligand, human, UniProt P09529 293-407, looked up)
chain: GLECDGRTNLCCRQQFFIDFRLIGWNDWIIAPTGYYGNYCEGSCPAYLAGVPGSASSFHTAVVNQYRMRGLNPGTVNSCCIPTKLSTMSMLYFDDEYNIVKRDVPNMIVEECGCA
notes: human activin B: inhibin beta B chain, mature growth factor domain; source: bought: R&D Systems
B2: ActRIIB.hFc (soluble form of activin receptor type IIB fused to human IgG Fc fragment) (Fc fusion, UniProt Q13705 19-137, looked up)
chain: SGRGEAETRECIYYNANWELERTNQSGLERCEGEQDKRLHCYASWRNSSGTIELVKKGCWLDDFNCYDRQECVATEENPQVYFCCCEGNFCNERFTHLPEAGGPEVTYEPPPTAPTLLT
notes: activin receptor type IIB (ACVR2B; ActRIIB), soluble form; also called hActRIIB.hFc; ACVR2B; source: made at Regeneron
B3: activin A (ligand, human, UniProt P08476 311-426, looked up)
chain: GLECDGKVNICCKKQFFVSFKDIGWNDWIIAPSGYHANYCEGECPSHIAGTSGSSLSFHSTVINHYRMRGHSPFANLKSCCVPTKLRPMSMLYYDDGQNIIKKDIQNMIVEECGCS
notes: human activin A: inhibin beta A chain, mature growth factor domain; also called Act A; source: bought: R&D Systems
B4: GDF11 (ligand, human, UniProt O95390 299-407, looked up)
chain: NLGLDCDEHSSESRCCRYPLTVDFEAFGWDWIIAPKRYKANYCSGQCEYMFMQKYPHTHLVQQANPRGSAGPCCTPTKMSPINMLYFNDKQQIIYGKIPGMVVDRCGCS
notes: human GDF11, mature growth factor domain; source: bought: R&D Systems

Assay [1] addresses B2. The assay is described as follows: SPR; ligands at 40 to 0.78 nM injected over captured ActRIIB.hFc surface; Biacore T200, carboxymethyl dextran-coated CM4 sensor chip, 25 °C. Conditions: both partners purified.
The target in assay [2] is B3. The assay is described as follows: cell-based or functional assay.
The target in assay [3] is B1. The assay is described as follows: cell-based or functional assay.
For assay [4], the target named is T1, activin AB (human, UniProt P08476 311-426; P09529 293-407).
T1 sequence (looked up) 1: B3 chain
T1 sequence (looked up) 2: B1 chain
Briefly: cell-based or functional assay.

For assay [5], the target named is T2, activin AC (human, UniProt P08476 311-426; P55103 237-352).
T2 sequence (looked up) 1: B3 chain
T2 sequence (looked up) 2: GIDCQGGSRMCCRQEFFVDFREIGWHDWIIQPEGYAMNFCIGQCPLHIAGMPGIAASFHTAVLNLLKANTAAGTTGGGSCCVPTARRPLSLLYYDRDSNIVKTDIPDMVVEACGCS
Briefly: cell-based or functional assay.

Assay [6] concerns the target T3, Growth and differentiation factor 8 (GDF8) (human, UniProt O14793 267-375).
T3 sequence (looked up): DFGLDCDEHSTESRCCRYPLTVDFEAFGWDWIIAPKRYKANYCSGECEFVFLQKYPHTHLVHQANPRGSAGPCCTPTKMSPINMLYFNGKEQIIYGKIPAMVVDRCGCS
The assay is described as follows: cell-based or functional assay.

Assay [7] has as its target B4. Briefly: cell-based or functional assay.
Assay [8] concerns the target T1, activin AB. The assay is described as follows: SPR; ligands at 40 to 0.78 nM injected over captured ActRIIB.hFc surface; Biacore T200, carboxymethyl dextran-coated CM4 sensor chip, 25 °C. Conditions: both partners purified. A general note: Surface plasmon resonance follows binding to a sensor surface in real time, without labels.
For assay [9], the target named is T2, activin AC. The assay is described as above. The following applies: both partners purified.

We go through four molecules from PMC5414365, “Activin A more prominently regulates muscle mass in primates than does GDF8” (Nature Communications, 2017).

Usually Kd stands for the equilibrium constant for the complex coming apart. High values mean weaker binding, low ones tighter binding.

With B1, in assay [1], the Kd is 0.0064 nM.
As for B2, in assay [2], the “IC50 of ActRIIB.hFc against activin A-stimulated Smad2/3 activity (CAGAx12-luc reporter, A204 cells; fixed ligand concentration)” value was determined as 0.63 nM. Besides, the “IC50 of ActRIIB.hFc against activin B-stimulated Smad2/3 activity (CAGAx12-luc reporter, A204 cells; fixed ligand concentration)” value in assay [3] amounted to 0.55 nM. For the same molecule, the “IC50 of ActRIIB.hFc against activin AB-stimulated Smad2/3 activity (CAGAx12-luc reporter, A204 cells; fixed ligand concentration)” value in assay [4] turned out to be 0.39 nM. Also, in assay [5], the “IC50 of ActRIIB.hFc against activin AC-stimulated Smad2/3 activity (CAGAx12-luc reporter, A204 cells; fixed ligand concentration)” value is 0.085 nM. Moreover, the “IC50 of ActRIIB.hFc against GDF8-stimulated Smad2/3 activity (CAGAx12-luc reporter, A204 cells; fixed ligand concentration)” value in assay [6] turned out to be 0.3 nM. Besides, the “IC50 of ActRIIB.hFc against GDF11-stimulated Smad2/3 activity (CAGAx12-luc reporter, A204 cells; fixed ligand concentration)” value in assay [7] turned out to be 0.21 nM. The results for the Kd in [8] and in assay [9] were 0.0044 nM and 5.9 nM, respectively.
Regarding B3, the Kd in assay [1] was less than 0.0035 nM.
B4: binding in [1] was put at a Kd of 0.014 nM.
